Experimental findings from US5622828 are described below.

Holding throughout (experiment): filter
The target in data set [1] is basic fibroblast growth factor (bFGF) (Homo sapiens) (UniProt P09038). The settings on record: random pool, TBSC.
Data set [2] has as its target pancreatic phospholipase A2 (bpPLA2) (Bos taurus) (UniProt P00593). To be noted: random pool; TBSC.
Data set [3] deals with T1, secretory phospholipase A2 (sPLA2) (Homo sapiens) (UniProt P14555).
T1 sequence: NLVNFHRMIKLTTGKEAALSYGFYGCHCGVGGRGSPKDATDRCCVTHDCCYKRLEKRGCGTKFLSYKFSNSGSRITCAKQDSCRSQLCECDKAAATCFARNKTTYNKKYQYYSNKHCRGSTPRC
The settings on record: TBSC, 37 C.

The target in data set [4] is lysozyme (egg white) (Gallus gallus) (UniProt P00698). To be noted: random pool; TBSC.
Chain of lysozyme (egg white) (Gallus gallus) (P00698 19-147): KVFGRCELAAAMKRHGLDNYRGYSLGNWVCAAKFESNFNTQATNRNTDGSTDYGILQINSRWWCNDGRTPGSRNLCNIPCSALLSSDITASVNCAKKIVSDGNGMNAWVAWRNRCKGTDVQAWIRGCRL
Data set [5] concerns immunoglobulin G (IgG) (Homo sapiens). To be noted: 2'-NH2 all C and U, TBSC.
Data set [6] concerns the target C1q (printed Clq) (Homo sapiens) (UniProt P02745+P02746+P02747). The settings on record: 2'-NH2 all C and U; random pool; TBSC.
Data set [7] concerns the target T2, neutrophil elastase (Homo sapiens) (UniProt P08246).
T2 sequence: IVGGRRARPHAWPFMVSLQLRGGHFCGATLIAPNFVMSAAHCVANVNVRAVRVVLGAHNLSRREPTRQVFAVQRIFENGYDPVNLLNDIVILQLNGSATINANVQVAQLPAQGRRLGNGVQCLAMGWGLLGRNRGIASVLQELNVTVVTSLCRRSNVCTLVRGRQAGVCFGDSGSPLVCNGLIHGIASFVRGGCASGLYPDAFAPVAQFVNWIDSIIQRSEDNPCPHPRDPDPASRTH
To be noted: 2'-NH2 all C and U; random pool; TBSC.

Where [8] appears, read: 2'-NH2 all C and U, random starting pool.

Chain of basic fibroblast growth factor (bFGF) (Homo sapiens) (P09038 143-288): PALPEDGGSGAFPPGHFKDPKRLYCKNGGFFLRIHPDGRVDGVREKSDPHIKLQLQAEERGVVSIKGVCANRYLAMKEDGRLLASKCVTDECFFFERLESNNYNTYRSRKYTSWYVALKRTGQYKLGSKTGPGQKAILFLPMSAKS
Chain of C1q (printed Clq) (Homo sapiens) (P02745 23-245, chain 1 of 3): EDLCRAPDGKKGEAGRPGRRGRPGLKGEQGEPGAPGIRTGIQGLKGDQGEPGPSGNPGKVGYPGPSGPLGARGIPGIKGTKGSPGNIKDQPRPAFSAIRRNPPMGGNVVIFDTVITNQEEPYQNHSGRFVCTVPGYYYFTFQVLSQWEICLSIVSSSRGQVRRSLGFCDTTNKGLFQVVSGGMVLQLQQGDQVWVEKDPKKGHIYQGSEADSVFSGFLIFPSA
Chain of C1q (printed Clq) (Homo sapiens) (P02746 28-253, chain 2 of 3): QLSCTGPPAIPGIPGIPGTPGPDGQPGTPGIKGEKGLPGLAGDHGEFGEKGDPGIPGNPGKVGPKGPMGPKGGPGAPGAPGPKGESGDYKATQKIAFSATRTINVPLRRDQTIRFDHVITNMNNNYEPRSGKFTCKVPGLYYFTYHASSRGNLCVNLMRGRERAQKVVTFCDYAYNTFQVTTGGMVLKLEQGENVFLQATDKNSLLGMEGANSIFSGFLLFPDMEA
Chain of C1q (printed Clq) (Homo sapiens) (P02747 29-245, chain 3 of 3): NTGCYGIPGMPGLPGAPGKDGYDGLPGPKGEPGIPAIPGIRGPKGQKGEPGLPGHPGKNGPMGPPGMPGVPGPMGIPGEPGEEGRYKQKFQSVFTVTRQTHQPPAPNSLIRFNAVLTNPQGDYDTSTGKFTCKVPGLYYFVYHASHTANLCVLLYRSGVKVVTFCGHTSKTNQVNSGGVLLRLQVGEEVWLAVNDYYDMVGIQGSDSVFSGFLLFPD
Chain of pancreatic phospholipase A2 (bpPLA2) (Bos taurus) (P00593 23-145): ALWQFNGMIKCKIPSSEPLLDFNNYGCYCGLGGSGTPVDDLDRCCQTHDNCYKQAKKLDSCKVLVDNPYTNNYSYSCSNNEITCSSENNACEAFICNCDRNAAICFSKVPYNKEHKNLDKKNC

Turning to “GGGAGCUCAGAAUAAACGCUCAANNNNNNNNNNNNNNNNNNNNNNNNNNNNNNUUCGACAUGAGGCCCGGAUCCGGC [30N1 random RNA]”, the Kd (as a rule, a measure of binding affinity in units of concentration) was 270 nM in data set [1]; 22.5 µM in data set [2]; 360 nM in data set [3] (random pool, text of Example 2 gives 240 nM); 1650 nM in data set [4].

Consider “GGGAAAAGCGAAUCAUACACAAGACCGGCCGGCGCCAUAGCCGAGAUCCGAGGUGUUGAACGAUAACUCGGUGCUCCGCCAGAGACCAACCGAGAA [NN19]”, for which, in data set [5] (specificity control), the Kd is > 5 µM.

“GGGAGCUCAGAAUAAACGCUCAAGANCUCUGCUUACAGCCCGGCUGGGACACUUCGACAUGAGGCCCGGAUCCGGC [75t (75)]” yielded a dissociation constant (Kd) in data set [3] (biphasic, Kd2 420 nM, mole fraction 0.40) of 0.9 nM. In other words, the sub-nanomolar range.

In the case of “GGGAGGACGAUGCGGNNNNNNNNNNNNNNNNNNNNNNNNNNNNNNNNNNNNNNNNNNNNNNNNNNCAGACGACUCGCCCGA [50N7 random RNA]”, the Kd in data set [3] (setting [8]) was 71 nM.

In turn, “GGGAGCUCAGAAUAAACGCUCAANNNNNNNNNNNNNNNNNNNNNNNNNNNNNNUUCGACAUGAGGCCCGGAUCCGGC [30N1F random RNA]” yielded a Kd in data set [3] (2'-F all C and U, random 2'-F pool) of 35 nM.

Turning to “GGGAAAAGCGAAUCAUACACAAGANNNNNNNNNNNNNNNNNNNNNNNNNNNNNNNNNNNNNNNNNNNNNNNNNNGCUCCGCCAGAGACCAACCGAGAA [50N9 random RNA]”, the dissociation constant Kd was 170 nM in data set [1] (2'-NH2 all C and U); 1000 nM in data set [6]; 48 nM in data set [3] (setting [8]); > 5 µM in data set [5] (random pool); 70 nM in data set [7].

The sequence “GGGAAAAGAAGACCGGCCGGCGCCAUAGCCGAGAUCCGAGGUGUUGCCGAGAA [NN19.15]” had a Kd in data set [5] (specificity control, like random RNA) of 4.3 µM.
